Assay [1] deals with human FcγRIIIa stably expressed on CHO cells (human) (UniProt P08637).
For assay [2] the target is unchanged. The experiment in a line: flow cytometry on cells. (In general: Flow cytometry measures light scatter and fluorescence of single cells or particles in a stream.)

These results are taken from article PMC6499931.

Sequence of UniProt P08637 (P08637 17-254): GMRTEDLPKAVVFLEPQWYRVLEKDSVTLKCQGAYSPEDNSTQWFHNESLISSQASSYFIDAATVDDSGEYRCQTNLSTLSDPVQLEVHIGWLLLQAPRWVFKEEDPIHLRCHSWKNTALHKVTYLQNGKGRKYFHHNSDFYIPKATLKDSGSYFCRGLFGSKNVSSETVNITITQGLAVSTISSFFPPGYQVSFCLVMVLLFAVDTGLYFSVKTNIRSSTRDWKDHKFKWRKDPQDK

B1: BMS-986012, nonfucosylated fully human IgG1 anti-fucosyl-GM1 antibody (antibody, V domains shown)
VH: EVQLVESGGGSVQPGESLRLSCVASGFTFSRYKMNWVRQAPGKGLEWVSYISRSGRDIYYADSVKGRFTISRDNAKNSLYLQMNSLRDEDTAVYYCAGTVTTYYYDFGMDVWGQGTTVTVSS
VL: DIQMTQSPSSLSASVGDRVTITCRASQGISSWLAWYQQKPEKAPKSLIYAASSLQSGVPSRFSGSGSGTDFTLTISSLQPEDFATYYCQQYNSYPPTFGGGTKVEIK
B1 displayed an NK cell-mediated ADCC against the FucGM1+ SCLC cell line DMS79, EC50 in assay [1] of 0.06 nM. In assay [2], this molecule came in with an EC50 of 3.5 nM.

B2: 7E4, fucosylated parental anti-fucosyl-GM1 antibody in conventional fucosylated IgG1 format (antibody, V domains shown)
VH: EVQLVESGGGSVQPGESLRLSCVASGFTFSRYKMNWVRQAPGKGLEWVSYISRSGRDIYYADSVKGRFTISRDNAKNSLYLQMNSLRDEDTAVYYCAGTVTTYYYDFGMDVWGQGTTVTVSS
VL: DIQMTQSPSSLSASVGDRVTITCRASQGISSWLAWYQQKPEKAPKSLIYAASSLQSGVPSRFSGSGSGTDFTLTISSLQPEDFATYYCQQYNSYPPTFGGGTKVEIK
On to B2, for which, in assay [1], the NK cell-mediated ADCC against the FucGM1+ SCLC cell line DMS79, EC50 was found to be 8 nM. The EC50 in assay [2] worked out at 138 nM.

The EC50 is the concentration needed to bring the measured effect to its halfway point.
